Series [1] can be described thus: Plasma ECM32 (AdipoR1) level in normal and diabetic rats. The conditions noted are these: rat, 2 mg/kg, 120 min. The series is classed as in vivo. How it is done:
The effect of ECM32 (SEQ ID NO:1) on the plasma adiponectin and ECM32 levels in normal and diabetic rats was evaluated. The peptide was injected at 2 mg/kg along with a control group.

A further series has as its target ADAM-17 (Homo sapiens, UniProt P78536). Put plainly: Inhibition of ADAM-17 (TACE) activity. In kind it is biochemical. Particulars: for ADAM 17 inhibition: Example 9, Table 3. Here is the method: (§1) The cleavage enzymes for ECM32 are also potential therapeutic targets. ECM32 sequence at the cleavage site was matched to Elastase (X-VV) and ADAM17 (X-VVAA) as potential enzymes (proteases) able to cleave or bind ECM32. The peptides of SEQ ID NO:1 (ECM32) and SEQ ID NO:2 (ECM30) were tested at levels of 0 mg/L, 12.5 mg/L, 25 mg/L, and 50 mg/L for their effect on cleavage enzymes.
The effect of ECM32 (SEQ ID NO:1), ECM30 (SEQ ID NO:2), ECM25 (SEQ ID NO:5), ECM10 (SEQ ID NO:6), ECM12 (SEQ ID NO:7), and ECM9 (SEQ ID NO:8) on ADAM-17 activity was evaluated.

In series [2] the target is T1, insulin degradation enzyme (IDE) (Homo sapiens, UniProt P14735). Put plainly: Inhibition of IDE activity. The series is classed as biochemical. The conditions noted are these: Example 9, Table 3.
The subject of a further series is diabetic rats. The series is described as follows: Plasma insulin testing in diabetic rats. The series is classed as in vivo, rat. The conditions noted are these: 2 mg/mL and 10 mg/mL in saline intravenously. Here is the method:
The peptide of SEQ ID NO:2 (ECM30) was tested by treating diabetic rat groups of 8 animals at 2 mg/mL and 10 mg/mL in saline intravenously and compared to a control group (bovine serum albumin in saline). All three groups were fasted on Day 0. Fasted plasma glucose and insulin were be measured on Day 1 at 0, 30, 60, 90, and 120 minutes post glucose dose. Plots of the data are shown in FIG. 3 and FIG. 4, for the insulin level and % of pre-dose glucose in ng/ml, respectively, as a function of time.

The subject of a further series is Elastase. Put plainly: Elastase inhibition. The series is classed as biochemical. Particulars: Example 4; 0, 12.5, 25, 50 mg/L. Here is the method:
as §1

The test system of a further series is normal rats. Put plainly: Plasma insulin testing in normal rats. The series is classed as in vivo, rat. Here is the method: The peptides of SEQ ID NO:1 (ECM32) and SEQ ID NO:2 (ECM30) were tested by treating normal rat groups of 6 to 8 animals at 2 mg/mL in saline intravenously and compared to an untreated control group (0.9% saline solution only). All three groups were fasted on Day 0. Fasted plasma glucose and insulin were measured on Day 1 at 0, 30, 60, 90, and 120 minutes post glucose dose (5 mL/kg). Plasma levels of ECM30 and ECM32 were also measured. Plots of the data are shown in FIG. 1 and FIG. 2, for the insulin level in ng/mL and glucose level in mg/dL, respectively, as a function of time.

In series [3] the target is T1, insulin degradation enzyme (IDE). The series is described as follows: Inhibition of IDE activity. The series is classed as biochemical. The conditions noted are these: Example 8; 0-50 μg/ml for ECM32, 0-100 μg/ml for ECM30. Here is the method:
The effect of ECM32 (SEQ ID NO:1) and ECM30 (SEQ ID NO:2) on IDE activity over time was evaluated at four different dose levels (0, 12.5, 25, and 50 μg/ml for ECM32 and 0, 25, 50, and 100 μg/ml for ECM30). The results are shown in FIG. 9 for ECM32 (SEQ ID NO:1) and FIG. 10 for ECM30 (SEQ ID NO:2). […]

The test system of another series is normal and diabetic rats. The series is described as follows: Effect on plasma glucose level in normal and diabetic rats. The series is classed as in vivo, rat. The conditions noted are these: injected at 2 mg/kg. Here is the method:
The effect of ECM32 (SEQ ID NO:1) and ECM30 (SEQ ID NO:2) on the plasma glucose levels in normal and diabetic rats was evaluated. The peptides were injected at 2 mg/kg along with a control group. […] This could be due to ADAM-17 cleavage of ECM30 into IDE inhibitory forms in vivo.

“Also recorded” adds a separate entry of the source. Like-named read-outs stand apart in the source and are kept apart here. Residues, ends and D or L forms follow the SMILES beside them.

ADAM-17, sequence (P78536 215-824, species assumed): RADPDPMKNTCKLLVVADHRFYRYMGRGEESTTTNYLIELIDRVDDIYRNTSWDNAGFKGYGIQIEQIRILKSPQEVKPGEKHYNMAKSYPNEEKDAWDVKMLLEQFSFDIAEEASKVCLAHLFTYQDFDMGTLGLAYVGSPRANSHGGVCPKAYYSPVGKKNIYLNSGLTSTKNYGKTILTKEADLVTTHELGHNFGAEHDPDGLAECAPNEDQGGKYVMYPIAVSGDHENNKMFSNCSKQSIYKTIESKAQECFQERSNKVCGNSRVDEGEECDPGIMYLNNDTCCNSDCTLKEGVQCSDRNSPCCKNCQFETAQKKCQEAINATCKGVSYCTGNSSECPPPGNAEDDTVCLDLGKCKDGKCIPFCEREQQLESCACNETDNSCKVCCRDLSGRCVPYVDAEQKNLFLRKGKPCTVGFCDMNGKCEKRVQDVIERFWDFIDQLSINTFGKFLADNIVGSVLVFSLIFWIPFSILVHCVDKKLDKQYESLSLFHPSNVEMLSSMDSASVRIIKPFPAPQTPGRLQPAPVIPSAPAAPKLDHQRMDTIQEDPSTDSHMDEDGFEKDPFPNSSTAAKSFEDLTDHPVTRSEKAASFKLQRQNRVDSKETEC

Turning to `CC(C)C[C@H](NC(=O)[C@H](CC(C)C)NC(=O)[C@@H](NC(=O)[C@H](CC(=O)O)NC(=O)[C@H](CC(=O)O)NC(=O)[C@@H](NC(=O)[C@H](CS)NC(=O)CNC(=O)CNC(=O)[C@H](CCC(=O)O)NC(=O)[C@H](CC(C)C)NC(=O)CNC(=O)[C@H](Cc1ccc(O)cc1)NC(=O)[C@H](CCCNC(=N)N)NC(=O)[C@H](Cc1ccccc1)NC(=O)[C@H](CCC(=O)O)NC(=O)[C@H](CCC(N)=O)NC(=O)[C@H](CC(C)C)NC(=O)[C@H](CC(N)=O)NC(=O)[C@H](CO)NC(=O)[C@@H](NC(=O)CNC(=O)[C@H](Cc1ccc(O)cc1)NC(=O)[C@H](Cc1ccccc1)NC(=O)[C@H](Cc1c[nH]cn1)NC(=O)[C@@H](NC(=O)[C@H](Cc1ccccc1)NC(=O)[C@H](C)NC(=O)[C@H](C)NC(=O)[C@H](C)NC(=O)[C@@H](NC(=O)[C@@H](N)C(C)C)C(C)C)C(C)C)C(C)C)[C@@H](C)O)[C@@H](C)O)C(=O)O` [ECM32] (H-VVAAAFVHFYGVSNLQEFRYGLEGGCTDDTLL-OH; N-terminus and C-terminus assumed), the level at 2 h in series [1] (Diabetic Rats (ZDF), read-out: ECM32 (AdipoR1) in Plasma, Mean ± SD) is 95.1 ± 36.1 ng/mL; in series [1] (Normal Rats (SD)), 113 ± 18.5 ng/mL.

With “HFYGVSNLQEFR [ECM12, ADIPOR1 fragment, 12 amino acids]”, in the series with ADAM-17, the “ADAM 17 inhibition” value is reported as “no significant effect on ADAM-17 activity; also recorded: negative”. The IDE inhibition result in series [2] is “inhibit IDE activity; also recorded: positive”.

As for “HFYGVSNLQEFRYGLEGGCTDDTLL [ECM25, ADIPOR1 C-terminal fragment, 25 amino acids]”, the “ADAM 17 inhibition” value with ADAM-17 is “no significant effect on ADAM-17 activity”; with ADAM-17 (listed as ECM 25), “negative”. The results for the IDE inhibition entry in series [2] and in series [2] (listed as ECM 25) were “inhibit IDE activity” and “positive”, respectively.

With “HVLVVAAAFVHFYGVSNLQEFRYGLEGGCT (listed as Homo Sapiens) [ECM30, ADIPOR1 fragment, 30 amino acids, uncleaved form]”, in the series on diabetic rats, the plasma insulin result is on record as “did not increase insulin”. Moreover, in the series with ADAM-17 (Example 4, 0, 12.5, 25, 50 mg/L), the “inhibitory effect on ADAM-17 (% TACE control activity)” value is “did not significantly inhibit”. In addition, the “ADAM 17 inhibition” value was “no significant effect on ADAM-17 activity” with ADAM-17 and “negative” with ADAM-17 (listed as ECM 30). In addition, the elastase inhibition result in the series on Elastase is “Neither ECM30 nor ECM32 showed elastase inhibition”. The IDE inhibition entry in series [2] is reported as “no significant effect on IDE”; in series [2] (listed as ECM 30), “negative”. For the same compound, the “plasma insulin compared to the control group” value with normal rats (2 mg/mL in saline intravenously, 0-120 min post glucose dose) is given as “marked elevation in the plasma insulin”. Moreover, the “insulin peak relative to control” value with normal rats (30 minute time point) is “twice that observed for the control”. The “IDE activity over time” value in series [3] is “no significant effect on IDE over time”. The plasma glucose levels result in the series on normal and diabetic rats was “lowered glucose levels, but at longer time points”.

Take “SGCTDDTLL [ECM9, ADIPOR1 fragment, 9 amino acids]”: the “ADAM 17 inhibition” value with ADAM-17 is “no significant effect on ADAM-17 activity”; in the series with ADAM-17 (listed as ECM 9) it was “negative”. Moreover, the IDE inhibition result in series [2] is reported as “inhibit IDE activity”; in series [2] (listed as ECM 9), “positive”.

For “VVAAAFVHFY [ECM10, ADIPOR1 fragment, 10 amino acids]”, the results for the “ADAM 17 inhibition” value with ADAM-17 and with ADAM-17 (listed as ECM 10) were “no significant effect on ADAM-17 activity” and “negative”, respectively. The IDE inhibition entry is recorded as “inhibit IDE activity” in series [2] and “positive” in series [2] (listed as ECM 10).
